According to patent publication US20230071889A1 (OSE IMMUNOTHERAPEUTICS, published 2023):

T1: CD132 receptor (Sinobiological 10555-H08B) (UniProt P31785 23-254)
T1 construct: Bought protein injected over the CD127/IL-7 complex in Biacore; also called common γ chain
T1 sequence (looked up): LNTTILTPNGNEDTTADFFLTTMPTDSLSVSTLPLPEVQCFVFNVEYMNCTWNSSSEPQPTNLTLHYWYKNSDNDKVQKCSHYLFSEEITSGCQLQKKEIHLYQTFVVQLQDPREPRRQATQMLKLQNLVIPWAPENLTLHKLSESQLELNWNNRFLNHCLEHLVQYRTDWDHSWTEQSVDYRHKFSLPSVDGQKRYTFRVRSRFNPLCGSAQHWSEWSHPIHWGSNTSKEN

B1: recombinant IL-7 cytokine (rIL7) (Biorad PHP046) (ligand, human, UniProt P13232 26-177, looked up)
chain: DCDIEGKDGKQYESVLMVSIDQLLDSMKEIGSNCLNNEFNFFKRHICDANKEGMFLFRAARKLRQFLKMNSTGDFDLHLLKVSEGTTILLNCTGQVKGRKPAALGEAQPTKSLEENKSLKEQKKLNDLCFLKRLLQEIKTCWNKILMGTKEH
notes: Bought cytokine
B2: anti-PD1 antibody, chimeric form (antibody, human IgG4 S228P, kappa, V domains shown)
VH: QIQLVQSGPELKKPGETVKISCKASGYTFTHYGMNWVKQAPGKGLKWMGWINTNTGEPTYAEEFKGRFAFSLETSASAAFLQINNLKNEDTATYFCAKEREPGMDSWGQGTSVTVSS
VL: DVLLTQTPLSLPVSLGDQASISCRSSQNIVHANGNTYLEWYLQKPGQSPKLLIYKVSNRFSGVPDRFSGSGSGTDFTLKITRVEAEDLGVYYCFQGSHVPNTFGGGTKLEIKR
notes: also called anti-PD1 alone

Assays:
[1] = molecular target: T1, CD132 receptor (Sinobiological …); test: Biacore, CD132 injected over the CD127/IL-7 complex on the chip
Protocol: CD127 (Sinobiological, 10975-H03H-50) was immobilized onto a CM5 biochip at 20 μg/ml and the indicated protein were added at serial concentrations (0.34; 1.03; 3.11; 9.3; 28 nM).

[2] = molecular target: T2, recombinant human PD-1 (Example 2) (human, UniProt Q15116 25-167, limits assumed, biotinylated in the PD-L1 ELISA (site not stated)); test: competition ELISA: PD-L1 coated, antibody mixed with biotinylated PD-1 at 0.6 ug/mL, streptavidin peroxidase; blocked ligand PD-L1
T2 construct: Biotinylated form in the ELISA on PD-L1; recombinant human PD-1 (100 nM) in the Biacore assay on PD-L2; also called biotinylated recombinant human PD-1; PD-1 recombinant protein
T2 sequence (Q15116 25-167 limits assumed): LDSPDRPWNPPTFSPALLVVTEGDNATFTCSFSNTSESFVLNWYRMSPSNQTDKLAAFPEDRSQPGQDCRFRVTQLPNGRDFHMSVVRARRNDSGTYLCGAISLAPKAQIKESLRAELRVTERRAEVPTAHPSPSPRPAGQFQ

Row | Binder | Kd [1] [nM] | IC50 (read off the curve) [2] [nM]
1 | B1 | 198 | –
2 | B2 | – | ~4
